# Reference: patent publication US20090068195A1 (Pfizer, published 2009)
# B1: sIL-13Rα2-Fc (soluble human IL-13 receptor alpha 2 Fc fusion) (Fc fusion, UniProt Q14627 27-343, looked up, not shown: a dimerising Fc or GST)
# chain: DTEIKVNPPQDFEIVDPGYLGYLYLQWQPPLSLDHFKECTVEYELKYRNIGSETWKTIITKNLHYKDGFDLNKGIEAKIHTLLPWQCTNGSEVQSSWAETTYWISPQGIPETKVQDMDCVYYNWQYLLCSWKPGIGVLLDTNYNLFYWYEGLDHALQCVDYIKADGQNIGCRFPYLEASDYKDFYICVNGSSENKPIRSSYFTFQLQNIVKPLPPVYLTFTRESSCEIKLKWSIPLGPIPARCFDYEIEIREDDTTLVTATVENETYTLKTTNETRQLCFVVRSKVNIYCSDDGIWSEWSDKQCWEGEDLSKKTLLR
# B2: non-human primate (cynomolgus monkey) IL-13 (ligand)
# chain: SPVPPSTALKELIEELVNITQNQKAPLCNGSMVWSINLTAGVYCAALESLINVSGCSAIEKTQRMLNGFCPHKVSAGQFSSLRVRDTKIEVAQFVKDLLVHLKKLFREGQFN
# notes: the construct used in the assays is not described; Also used here for endogenous IL-13 of cynomolgus monkeys in the PK-PD fits; also called NHP IL-13; NHP-IL-13
# Legend:
# [1] = molecular target: T1, NHP-IL-13 in a complex with immobilised hu IL-13Rα2-Fc (cynomolgus monkey; human, UniProt Q14627 27-343, limits assumed); test: SPR (BIACORE): antibody injected over NHP IL-13 held by immobilised sIL-13Ralpha2-Fc
# T1 construct: Pre-formed ligand-receptor complex on a CM5 chip; not shown: Fc part
# Procedure: (§1) sIL-13RI2-Fc was directly coated onto a CM5 chip by standard amine coupling. NHP-IL-13 at 100 nM concentration was injected, and its binding to the immobilized IL-13RI2-Fc was detected by BIACORE3. An additional injection of 100 nM of anti IL-13 antibodies was added, and changes in binding were monitored.
# FLAG-tagged NHP IL-13 [2] = molecular target: T2, FLAG-tagged NHP IL-13 (cynomolgus monkey, UniProt Q5I6E4 21-132 (Macaca thibetana entry), limits assumed); test: competition ELISA: IL-13Ralpha1-Fc coated on the plate, FLAG-tagged NHP IL-13 added with rising MJ2-7; the blocked partner is IL-13Ralpha1-Fc
# T2 chain: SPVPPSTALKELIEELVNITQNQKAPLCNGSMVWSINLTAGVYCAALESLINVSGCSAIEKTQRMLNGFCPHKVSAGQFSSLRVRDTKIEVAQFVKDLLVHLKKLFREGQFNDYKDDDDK
# Procedure: (§2) The ability of MJ2-7 to inhibit binding of NHP IL-13 to IL-13RI1 and IL-13RI2 was tested by ELISA. Recombinant soluble forms of human IL-13RI1-Fc and IL-13RI2-Fc were coated onto ELISA plates. FLAG-tagged NHP IL-13 was added in the presence of increasing concentrations of MJ2-7. […] This provides a basis for the neutralization of IL-13 bioactivity by MJ2-7.
# FLAG-tagged NHP IL-13 [3] = molecular target: T2, FLAG-tagged NHP IL-13; test: competition ELISA: IL-13Ralpha2-Fc coated on the plate, FLAG-tagged NHP IL-13 added with rising MJ2-7; the blocked partner is IL-13Ralpha2-Fc
# Procedure: as §2
# native human IL-13 = native human IL-13 (human, UniProt P35225 34-146, limits assumed); test: cell-based or functional assay
# [4] = molecular target: B2; test: cell-based or functional assay
# [5] = molecular target: B1; test: SPR (BIACORE): sIL-13Ralpha2-Fc amine-coupled to a CM5 chip, NHP IL-13 injected at 100 nM
# Procedure: as §1
# [6] = molecular target: B2; test: sandwich ELISA for total IL-13 in monkey serum, non-human primate IL-13 standards
# Procedure: The concentrations of total IL-13 in serum samples obtained from hMJ2-7v.2-11-treated monkeys were determined using quantitative ELISA. […] After blocking and washing, the serum samples containing IL-13 from in vivo studies or the non-human primate IL-13 standards were incubated on the plate to allow for binding to the anti-IL-13 capture antibody. […] Streptavidin conjugated to HRP and the enzyme substrate 3,3′,5,5′-tetramethylbenzidine (TMB) peroxidase were added and optical densities were measured at 450 nm. The low limit of quantitation of the assay was approximately 0.15 ng/mL.
# Chain of native human IL-13 (P35225 other isoform, or with tags, fused parts or gaps limits assumed): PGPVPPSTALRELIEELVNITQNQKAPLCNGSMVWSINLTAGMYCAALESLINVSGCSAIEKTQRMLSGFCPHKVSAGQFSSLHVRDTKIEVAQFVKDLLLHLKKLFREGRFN
binder,measurement,setting,value
"mouse monoclonal antibody MJ 2-7 (antibody, mouse IgG1, V domains shown, also called mAb7.1.1; murine MJ2-7) VH: EVQLQQSGAELVKPGASVKLSCTGSGFNIKDTYIHWVKQRPEQGLEWIGRIDPANDNIKYDPKFQGKATITADTSSNTAYLQLNSLTSEDTAVYYCARSEENWYDFFDYWGQGTTLTVSS VL: DVLMTQTPLSLPVSLGDQASISCRSSQSIVHSNGNTYLEWYLQKPGQSPKLLIYKVSNRFSGVPDRFSGSGSGTDFTLKISRVEAEDLGVYYCFQGSHIPYTFGGGTKLEIK",binding result,[1],no binding
same,IC50 (read off the curve),FLAG-tagged NHP IL-13 [2],~400 pM
same,IC50 (read off the curve),FLAG-tagged NHP IL-13 [3],~80 pM
same,"STAT6 phosphorylation in HT-29 cells, IC50",native human IL-13,480 pM
same,"STAT6 phosphorylation, IC50",native human IL-13,~293 pM
same,"tenascin C production by BEAS-2B cells, IC50",native human IL-13,~100 pM
same,"CD23 expression, IC50",[4],~242 pM
"mouse monoclonal antibody C65 (antibody, V domains shown) VH: QVQLKESGPGLVAPSQSLSITCTVSGFSLTGYGVNWVRQPPGKGLEWLGIIWGDGSTDYNSALKSRLIINKDNSKSQVFLKMNSLQTDDTARYFCARDKTFYYDGFYRGRMDYWGQGTSVTVSS VL: DVQMIQSPSSLSASLGDIVTMTCQASQGTSINLNWFQQKPGKAPKLLIFGASNLEDGVPSRFSGSRYGTNFTLTISSLEDEDMATYFCLQHSYLPWTFGGGTKLEIK","fold decrease in STAT6 phosphorylation in HT-29 cells, potency against MJ2-7",native human IL-13,~20 fold
same,"fold decrease in monocyte CD23 expression, potency against MJ2-7",[4],~20 fold
"humanized MJ2-7 v.2-11 (antibody, human IgG1, kappa, V domains shown) VH: EVQLVESGGGLVQPGGSLRLSCAASGFNIKDTYIHWVRQAPGKGLEWIGRIDPANDNIKYDPKFQGRFTISADNAKNSAYLQMNSLRAEDTAVYYCARSEENWYDFFDYWGQGTLVTVSS VL: DIQMTQSPSSLSASVGDRVTITCRSSQSIVHSNGNTYLEWYQQKPGKAPKLLIYKVSNRFSGVPSRFSGSGSGTDFTLTISSLQPEDFATYYCFQGSHIPYTFGGGTKVEIKR","STAT6 phosphorylation in HT-29 cells, IC50",native human IL-13,520 pM
B1,"STAT6 phosphorylation in HT-29 cells, IC50",native human IL-13,330 pM
B2,binding result,[5],binds
"humanized 13.2v.2 (antibody, V domains shown, Humanized form of mAb13.2; also called h13.2v2; h13.2v.2) VH: EVQLVESGGGLVQPGGSLRLSCAASGFTFISYAMSWVRQAPGKGLEWVASISSGGNTYYPDSVKGRFTISRDNAKNSLYLQMNSLRAEDTAVYYCARLDGYYFGFAYWGQGTLVTVSS VL: DIQMTQSPSSLSASVGDRVTITCKASESVDNYGKSLMHWYQQKPGKAPKLLIYRASNLESGVPSRFSGSGSGTDFTLTISSLQPEDFATYYCQQSNEDPWTFGGGTKVEIK",binding result,[6],binds
